From patent publication US20230357387A1 (published 2023) come the findings set out here.

Test [1] addresses T1, human ZIP12 extracellular domain expressed as a GST fusion protein (UniProt Q504Y0 1-202). Description: SPR; summary value. For orientation: In SPR one partner is held on a chip, and binding of the other changes the refractive index at the surface.
The target of test [2] is T1, human ZIP12 extracellular domain …. Description: SPR; replicate 1.
For test [3] the target is unchanged. Description: SPR; replicate 2.

Where a chain is given by its changes, count along the chain named.

T1 sequence (Q504Y0 1-202): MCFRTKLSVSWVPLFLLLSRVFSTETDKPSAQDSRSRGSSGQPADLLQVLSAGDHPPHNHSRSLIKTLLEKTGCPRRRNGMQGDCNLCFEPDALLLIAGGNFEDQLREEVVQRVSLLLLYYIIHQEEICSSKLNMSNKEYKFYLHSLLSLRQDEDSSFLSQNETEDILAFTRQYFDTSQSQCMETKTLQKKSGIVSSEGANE

B1: 51B12 H0L3 (antibody)
chain 1: not shown
chain 2: DIVLTQSPDSLAVSLGERATINCRASKSVSTSGYSYMHWYQQKPGQPPKFLIYLASNLESGVPDRFSGSGSGTDFTLTISSLQAEDVAVYYCQHSREVPYTFGGGTKVEIKRTVAAPSVFIFPPSDEQLKSGTASVVCLLNNFYPREAKVQWKVDNALQSGNSQESVTEQDSKDSTYSLSSTLTLSKADYEKHKVYACEVTHQGLSSPVTKSFNRGEC
In general, Kd refers to a measure of binding affinity in units of concentration. Low readings indicate a tighter complex, high ones a looser complex. Consider B1, for which the dissociation constant Kd was found to be 0.7 nM in test [1], 0.605 nM in test [2] and 0.785 nM in test [3].

B2: 63A11 H0L1 (antibody)
chain 1: not shown
chain 2: B1 chain 2 with F50L, V98L, Y100L
For the molecule B2, in test [1], the affinity, expressed as Kd, was 0.9 nM.

B3: 51B12 H0L0 (antibody)
chain 1: not shown
chain 2: B1 chain 2 with L4M, F50L
In the case of B3, the dissociation constant Kd in test [2] and in test [3] was 1.39 nM throughout.
